Reference: PMC8584998, “Arabidopsis FHY3 and FAR1 Function in Age Gating of Leaf Senescence”

Target: T1, MBP-EIN3N (UniProt O24606 141-352)
T1 sequence: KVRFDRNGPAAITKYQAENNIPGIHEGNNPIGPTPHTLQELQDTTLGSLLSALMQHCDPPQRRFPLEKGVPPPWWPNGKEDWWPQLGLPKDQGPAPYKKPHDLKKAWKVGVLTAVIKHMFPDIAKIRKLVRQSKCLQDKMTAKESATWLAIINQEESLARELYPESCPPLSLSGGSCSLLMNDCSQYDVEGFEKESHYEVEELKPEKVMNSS
Assay: EMSA; LightShift Chemiluminescent EMSA kit (Pierce), 10 min at room temperature, 6% native polyacrylamide gel; buffer, salt and pH not stated
Settings: protein: recombinant; tags: MBP; chain copies: 2; label: biotin; blunt

B1: ORE1 EBS (dsDNA)
DNA 1: ATACTTTACAAGGTTCATGCATGCATAC
DNA 2: GTATGCATGCATGAACCTTGTAAAGTAT
Does B1 bind?
Result: binds
